The source of these data is doi:10.1101/2025.04.04.646765, “Molecular basis for multidrug efflux by an anaerobic RND transporter” (bioRxiv, 2025).

This series concerns the molecule itself. Nature of the series: cryo-EM structure.

B1: Escherichia coli multidrug transporter MdtF, wild type (MdtF-6xHis) in SMA lipid particles (natural protein)
chain: MANYFIDRPVFAWVLAIIMMLAGGLAIMNLPVAQYPQIAPPTITVSATYPGADAQTVEDSVTQVIEQNMNGLDGLMYMSSTSDAAGNASITLTFETGTSPDIAQVQVQNKLQLAMPSLPEAVQQQGISVDKSSSNILMVAAFISDNGSLNQYDIADYVASNIKDPLSRTAGVGSVQLFGSEYAMRIWLDPQKLNKYNLVPSDVISQIKVQNNQISGGQLGGMPQAADQQLNASIIVQTRLQTPEEFGKILLKVQQDGSQVLLRDVARVELGAEDYSTVARYNGKPAAGIAIKLAAGANALDTSRAVKEELNRLSAYFPASLKTVYPYDTTPFIEISIQEVFKTLVEAIILVFLVMYLFLQNFRATIIPTIAVPVVILGTFAILSAVGFTINTLTMFGMVLAIGLLVDDAIVVVENVERVIAEDKLPPKEATHKSMGQIQRALVGIAVVLSAVFMPMAFMSGATGEIYRQFSITLISSMLLSVFVAMSLTPALCATILKAAPEGGHKPNALFARFNTLFEKSTQHYTDSTRSLLRCTGRYMVVYLLICAGMAVLFLRTPTSFLPEEDQGVFMTTAQLPSGATMVNTTKVLQQVTDYYLTKEKDNVQSVFTVGGFGFSGQGQNNGLAFISLKPWSERVGEENSVTAIIQRAMIALSSINKAVVFPFNLPAVAELGTASGFDMELLDNGNLGHEKLTQARNELLSLAAQSPNQVTGVRPNGLEDTPMFKVNVNAAKAEAMGVALSDINQTISTAFGSSYVNDFLNQGRVKKVYVQAGTPFRMLPDNINQWYVRNASGTMAPLSAYSSTEWTYGSPRLERYNGIPSMEILGEAAAGKSTGDAMKFMADLVAKLPAGVGYSWTGLSYQEALSSNQAPALYAISLVVVFLALAALYESWSIPFSVMLVVPLGVVGALLATDLRGLSNDVYFQVGLLTTIGLSAKNAILIVEFAVEMMQKEGKTPIEAIIEAARMRLRPILMTSLAFILGVLPLVISHGAGSGAQNAVGTGVMGGMFAATVLAIYFVPVFFVVVEHLFARFKKA
notes: also called MdtF^WT; apo-MdtF^WT; source: E. coli C43(DE3) ΔacrAB, extracted in SMALPs, purified (Ni-NTA, SEC)
What is called stoichiometry N is a count of units in the complex or per binding partner. For the protein B1, the “stoichiometry N” value was 3.

B2: Escherichia coli multidrug transporter MdtF, single-point mutant V610F (MdtF-6xHis) in SMA lipid particles (natural protein)
chain: MANYFIDRPVFAWVLAIIMMLAGGLAIMNLPVAQYPQIAPPTITVSATYPGADAQTVEDSVTQVIEQNMNGLDGLMYMSSTSDAAGNASITLTFETGTSPDIAQVQVQNKLQLAMPSLPEAVQQQGISVDKSSSNILMVAAFISDNGSLNQYDIADYVASNIKDPLSRTAGVGSVQLFGSEYAMRIWLDPQKLNKYNLVPSDVISQIKVQNNQISGGQLGGMPQAADQQLNASIIVQTRLQTPEEFGKILLKVQQDGSQVLLRDVARVELGAEDYSTVARYNGKPAAGIAIKLAAGANALDTSRAVKEELNRLSAYFPASLKTVYPYDTTPFIEISIQEVFKTLVEAIILVFLVMYLFLQNFRATIIPTIAVPVVILGTFAILSAVGFTINTLTMFGMVLAIGLLVDDAIVVVENVERVIAEDKLPPKEATHKSMGQIQRALVGIAVVLSAVFMPMAFMSGATGEIYRQFSITLISSMLLSVFVAMSLTPALCATILKAAPEGGHKPNALFARFNTLFEKSTQHYTDSTRSLLRCTGRYMVVYLLICAGMAVLFLRTPTSFLPEEDQGVFMTTAQLPSGATMVNTTKVLQQVTDYYLTKEKDNVQSVFTFGGFGFSGQGQNNGLAFISLKPWSERVGEENSVTAIIQRAMIALSSINKAVVFPFNLPAVAELGTASGFDMELLDNGNLGHEKLTQARNELLSLAAQSPNQVTGVRPNGLEDTPMFKVNVNAAKAEAMGVALSDINQTISTAFGSSYVNDFLNQGRVKKVYVQAGTPFRMLPDNINQWYVRNASGTMAPLSAYSSTEWTYGSPRLERYNGIPSMEILGEAAAGKSTGDAMKFMADLVAKLPAGVGYSWTGLSYQEALSSNQAPALYAISLVVVFLALAALYESWSIPFSVMLVVPLGVVGALLATDLRGLSNDVYFQVGLLTTIGLSAKNAILIVEFAVEMMQKEGKTPIEAIIEAARMRLRPILMTSLAFILGVLPLVISHGAGSGAQNAVGTGVMGGMFAATVLAIYFVPVFFVVVEHLFARFKKA
notes: also called MdtF^V610F; apo-MdtF^V610F; source: E. coli C43(DE3) ΔacrAB, extracted in SMALPs, purified (Ni-NTA, SEC)
As for B2, the binding result is recorded as “binds”.
